What was measured:
[1] = system: E. coli; assay: Brown Color Assay (cell-based colorimetric assay of HPPD activity and tolerance to HPPD inhibitors); details: in the presence of 1 mM Cmpd. 1; for brown color formation: read at 440 nm
Protocol: A specific, although non-limiting, type of assay that can be used to evaluate the HPPD sequences of the invention is a colorimetric assay. In this assay, a YT-broth-type culture medium with 1% agarose, 5 mM L-Tyrosine and 42 mM Succinate, which contains the selection agent for the vector pSE420 (Invitrogen, Karlsruhe, Germany) or a modified version of pSE420 (pSE420(RI)NX) is poured into deep well plates. E. coli culture in the exponential growth phase which contains the vector pSE420-HPPDx (HPPDx means any gene coding for a putative HPPD enzyme/protein) is applied to each well.
Confirmation of activity by Brown Color Assay: To confirm that the designated hits retain HPPD activity and are tolerant to HPPD inhibitors, a cell-based colorimetric assay was employed. Wild-type E. coli strains lack the HPPD pathway; therefore expressing an HPPD enzyme in the presence of the substrate hydroxyphenylpyruvate (HPP) leads to the accumulation of the product, homogentisate (HGA). HGA is, in turn, auto-oxidized to a brown pigment, pyomelanin, which can be read at 440 nm. When cells are grown in the presence of an herbicide, brown color formation is inhibited with no effect on cell growth. The pRANGER vector is a low-copy, broad host range vector that allows some expression in E. coli.

[2] = system: Cmpd. 1; assay: HitMix bacterial competition experiment against Cmpd. 1; format: cell-based; details: plasmid DNA of SG1, SG10 and reference proteins mixed, transformed and screened against Cmpd. 1
Source text: Screening variant libraries: In order to select improved variants, libraries of varying complexity were constructed in the pRANGER backbone. The first significant library to be screened was a multi-site saturation library, in which amino acid positions 338, 339, 340, and 341 were randomized with NNK codons, which use 32 codons to encode all 20 amino acids, for a theoretical complexity of 1.6×10^5 unique protein variants. Approximately 500,000 variants were transformed and screened in a bacterial competition assay against 5 mM Cmpd. 1 (2-chloro-3-(methylsulfanyl)-N-(1-methyl-1H-tetrazol-5-yl)-4-(trifluoromethyl)benzamide), and surviving clones were sequenced. After 3 rounds of subculturing, a single sequence was found and designated SG1 (Table 1). This sequence was used as the base gene for a 2nd generation library saturating positions 268, 270, 340, and 345. Similarly, these libraries were screened and SG10 (Table 1) was obtained from sequencing the surviving cultures at high concentrations of Cmpd. 1. To confirm that the hits had improved tolerance relative to K610, a “HitMix” competition experiment was carried out. Briefly, the plasmid DNA encoding each variant to be competed were mixed together in an Eppendorf tube, and then the DNA mixture was transformed and screened against Cmpd. 1 as previously described.

[3] = system: Thorne soybean plants; assay: Greenhouse herbicide spray application on T0 soybean plants; format: in vivo; details: single gene cassettes in Thorne soybean, T0 plants sprayed with Cmpd. 1
Source text: SG1, SG10, SG20, and SG22 were transformed as single gene cassettes into Thorne soybean plants and T0 plants were sprayed with Cmpd. 1 to measure herbicide tolerance. Each iteration of mutant identified in the bacterial screening assay performed better than the previous version (SG20>SG10>SG1).

B1: SG10: HPPD variant, SEQ ID NO:3; P268D, E335P, G336D, N337S, K339Y, A340R, I345M (protein)
chain: MADLYENPMGLMGFEFIEFASPTPGTLEPIFEIMGFTKVATHRSKNVHLYRQGEINLILNNEPNSIASYFAAEHGPSVCGMAFRVKDSQKAYNRALELGAQPIHIDTGPMELNLPAIKGIGGAPLYLIDRFGEGSSIYDIDFVYLEGVERNPVGAGLKVIDHLTHNVYRGRMVYWANFYEKLFNFREARYFDIKGEYTGLTSKAMSAPDGMIRIPLNEESSKGAGQIEEFLMQFNGEGIQHVAFLTDDLVKTWDALKKIGMRFMTAPDDTYYEMLEGRLPDHGEPVDQLQARGILLDGSSVEGDKRLLLQIFSETLMGPVFFEFIQRKGDDGFGPDSFYRLFESMERDQVRRGVLTAD
modifications: SG10 Mutant HPPD
notes: P268D, E335P, G336D, N337S, K339Y, A340R, I345M
brown color formation relative to HPPD(evo41) [1]: improved relative to HPPD(evo41)
brown color formation [1]: robust brown color formation
outcome of HitMix competition among variants [2]: emerged as the dominant sequence among all variants tested
herbicide tolerance in planta [3]: SG20>SG10>SG1

B2: SG1: HPPD variant, SEQ ID NO:2; E335P, G336D, N337S, K339Y, A340R relative to SEQ ID NO:1 (protein)
chain: MADLYENPMGLMGFEFIEFASPTPGTLEPIFEIMGFTKVATHRSKNVHLYRQGEINLILNNEPNSIASYFAAEHGPSVCGMAFRVKDSQKAYNRALELGAQPIHIDTGPMELNLPAIKGIGGAPLYLIDRFGEGSSIYDIDFVYLEGVERNPVGAGLKVIDHLTHNVYRGRMVYWANFYEKLFNFREARYFDIKGEYTGLTSKAMSAPDGMIRIPLNEESSKGAGQIEEFLMQFNGEGIQHVAFLTDDLVKTWDALKKIGMRFMTAPPDTYYEMLEGRLPDHGEPVDQLQARGILLDGSSVEGDKRLLLQIFSETLMGPVFFEFIQRKGDDGFGPDSFYRLFESIERDQVRRGVLTAD
modifications: SG1 variant HPPD
brown color formation relative to HPPD(evo41) [1]: improved relative to HPPD(evo41)
brown color formation [1]: robust brown color formation
herbicide tolerance in planta [3]: SG20>SG10>SG1

B3: SG20: HPPD variant, SEQ ID NO:4; P268D, T270A, E335P, G336D, N337S, K339Y, A340R, S344Q, I345M (protein)
chain: MADLYENPMGLMGFEFIEFASPTPGTLEPIFEIMGFTKVATHRSKNVHLYRQGEINLILNNEPNSIASYFAAEHGPSVCGMAFRVKDSQKAYNRALELGAQPIHIDTGPMELNLPAIKGIGGAPLYLIDRFGEGSSIYDIDFVYLEGVERNPVGAGLKVIDHLTHNVYRGRMVYWANFYEKLFNFREARYFDIKGEYTGLTSKAMSAPDGMIRIPLNEESSKGAGQIEEFLMQFNGEGIQHVAFLTDDLVKTWDALKKIGMRFMTAPDDAYYEMLEGRLPDHGEPVDQLQARGILLDGSSVEGDKRLLLQIFSETLMGPVFFEFIQRKGDDGFGPDSFYRLFEQMERDQVRRGVLTAD
modifications: SG20 mutant HPPD
notes: P268D, T270A, E335P, G336D, N337S, K339Y, A340R, S344Q, I345M
herbicide tolerance in planta [3]: SG20>SG10>SG1

B4: SG22: HPPD variant, SEQ ID NO:5; P268D, E335N, G336D, N337S, A340R, I345M (protein)
chain: MADLYENPMGLMGFEFIEFASPTPGTLEPIFEIMGFTKVATHRSKNVHLYRQGEINLILNNEPNSIASYFAAEHGPSVCGMAFRVKDSQKAYNRALELGAQPIHIDTGPMELNLPAIKGIGGAPLYLIDRFGEGSSIYDIDFVYLEGVERNPVGAGLKVIDHLTHNVYRGRMVYWANFYEKLFNFREARYFDIKGEYTGLTSKAMSAPDGMIRIPLNEESSKGAGQIEEFLMQFNGEGIQHVAFLTDDLVKTWDALKKIGMRFMTAPDDTYYEMLEGRLPDHGEPVDQLQARGILLDGSSVEGDKRLLLQIFSETLMGPVFFEFIQRKGDDGFGNDSFKRLFESMERDQVRRGVLTAD
modifications: SG22 mutant HPPD
notes: P268D, E335N, G336D, N337S, A340R, I345M
herbicide tolerance in planta [3]: performed similarly to SG1

From patent US11708565B2, “HPPD variants and methods of use” (BASF AGRICULTURAL SOLUTIONS SEED US LLC, priority 2017, dated 2023)
